Self-cleavage data for 32 variants are collected here from the RNAGym collection of RNA variant scans (doi:10.7554/elife.80360).

To fix the notation:
B1: HDV Ribozyme (parent)
chain: GGCCGGCAUGGUCCCAGCCUCCUCGCUGGCGCCGGCUGGGCAACAUUCCGAGGGGACCGUCCCCUCGGUAAUGGCGAAUGGGACCCA

Variants of B1 are the subject of the data set. In words: self-cleavage, relative activity (ratio to wild type); higher = more cleavage; co-transcriptional.
GGCCGGCAUGGUCCCAGCCUCCUCGCUGGCGCCGGCUGGGCAACAAUCCGAGGGGACCGUCCCCUCGGUAAUGGCGAAUGGGACCGA [U46A C86G]: the self-cleavage amounted to 0.831. For GGCCGGCAUGGUCCCAGCCUCCUCGCUGGCGCCGGCUGGGCAACAAUUCGAGGGGACCGUCCCCUCGGUAAUGGCGAAUGGGACCCA [U46A C48U] the value was 0.739; for GGCCGGCAUGGUCCCAGCCUCCUCGCUGGCGCCGGCUGGGCAACAAUGCGAGGGGACCGUCCCCUCGGUAAUGGCGAAUGGGACCCA [U46A C48G], 0.802; for GGCCGGCAUGGUCCCAGCCUCCUCGCUGGCGCCGGCUGGGCAACAAUCCGAGGGGACCGUCCCCUCGAUAAUGGCGAAUGGGACCCA [U46A G68A], 0.65.

Consider GGCCGGCAUGGUCCCAGCCUCCUCGCUGGCGCCGGCUGGGCAACAAUCCGAGGGGACCGUCCCCUCGUUAAUGGCGAAUGGGACCCA [U46A G68U], for which the self-cleavage is 0.657.

For the variant GGCCGGCAUGGUCCCAGCCUCCUCGCUGGCGCCGGCUGGGCAACUUUCCGAGGGGACCGUCCCCUCGGUAAUGGCGAAAGGGACCCA [A45U U79A], the self-cleavage was determined as 0.192.

For the variant GGCCGGCAUGGUCCCAGCCUCCUCGCUGGCGCCGGCUGGGCAACUUUCCGAGGGGACCGUCCCCUCGGUAAUGGCGAACGGGACCCA [A45U U79C], the self-cleavage is 0.26. For GGCCGGCAUGGUCCCAGCCUCCUCGCUGGCGCCGGCUGGGCAACAAUCCGAGGGGACCGUCCCCUCGGUAAUGGCGAUUGGGACCCA [U46A A78U] the value was 0.156; for GGCCGGCAUGGUCCCAGCCUCCUCGCUGGCGCCGGCUGGGCAACAAUCCGAGGGGACCGUCCCCUCGGUAAUGGCGAGUGGGACCCA [U46A A78G], 0.277. For the variant GGCCGGCAUGGUCCCAGCCUCCUCGCUGGCGCCGGCUGGGCAACAAUCCGAGGGGACCGUCCCCUCGGUUAUGGCGAAUGGGACCCA [U46A A70U], the self-cleavage stood at 0.587. For GGCCGGCAUGGUCCCAGCCUCCUCGCUGGCGCCGGCUGGGCAACAAUCCGAGGGGACCGUCCCCUCGGUGAUGGCGAAUGGGACCCA [U46A A70G] the value was 1.01; for GGCCGGCAUGGUCCCAGCCUCCUCGCUGGCGCCGGCUGGGCAACAAUCCGAGGGGACCGUCCCCUCGGUCAUGGCGAAUGGGACCCA [U46A A70C], 0.831. The figure for GGCCGGCAUGGUCCCAGCCUCCUCGCUGGCGCCGGCUGGGCAACAAUCCGAGGGGACCGUCCCCUCCGUAAUGGCGAAUGGGACCCA [U46A G67C] is 0.76; for GGCCGGCAUGGUCCCAGCCUCCUCGCUGGCGCCGGCUGGGCAACAAUCCUAGGGGACCGUCCCCUCGGUAAUGGCGAAUGGGACCCA [U46A G50U] it is 0.73; for GGCCGGCAUGGUCCCAGCCUCCUCGCUGGCGCCGGCUGGGCAACAAUCCCAGGGGACCGUCCCCUCGGUAAUGGCGAAUGGGACCCA [U46A G50C] it is 0.597. As to GGCCGGCAUGGUCCCAGCCUCCUCGCUGGCGCCGGCUGGGCAACAAUCCGAGGGGACCGUCCCCUCGGUAAUGGCGCAUGGGACCCA [U46A A77C], the self-cleavage came out at 0.119.

As for GGCCGGCAUGGUCCCAGCCUCCUCGCUGGCGCCGGCUGGGCAACAAUCCGAGGGGACCGUCCCCUCGGUAAUGGCGUAUGGGACCCA [U46A A77U], the self-cleavage came to 0.115. Regarding GGCCGGCAUGGUCCCAGCCUCCUCGCUGGCGCCGGCUGGGCAACAAUCCGAGGGGACCGUCCCCUCGGUAAUGGCGGAUGGGACCCA [U46A A77G], the self-cleavage was found to be 0.646. As to GGCCGGCAUGGUCCCAGCCUCCUCGCUGGCGCCGGCUGGGCAACUUUCCGAGGGGACCGUCCCCUCGGAAAUGGCGAAUGGGACCCA [A45U U69A], the self-cleavage turned out to be 0.77. The figure for GGCCGGCAUGGUCCCAGCCUCCUCGCUGGCGCCGGCUGGGCAACUUUCCGAGGGGACCGACCCCUCGGUAAUGGCGAAUGGGACCCA [A45U U60A] is 0.723; for GGCCGGCAUGGUCCCAGCCUCCUCGCUGGCGCCGGCUGGGCAACUUUCCGAGGGGACCGCCCCCUCGGUAAUGGCGAAUGGGACCCA [A45U U60C] it is 0.911. For GGCCGGCAUGGUCCCAGCCUCCUCGCUGGCGCCGGCUGGGCAACAAUCCGAGGGGUCCGUCCCCUCGGUAAUGGCGAAUGGGACCCA [U46A A56U] the value was 0.704. The figure for GGCCGGCAUGGUCCCAGCCUCCUCGCUGGCGCCGGCUGGGCAACAAUCCGAGGGGCCCGUCCCCUCGGUAAUGGCGAAUGGGACCCA [U46A A56C] is 0.802; for GGCCGGCAUGGUCCCAGCCUCCUCGCUGGCGCCGGCUGGGCAACAAUCCGAGGGGGCCGUCCCCUCGGUAAUGGCGAAUGGGACCCA [U46A A56G] it is 0.831. Turning to GGCCGGCAUGGUCCCAGCCUCCUCGCUGGCGCCGGCUGGGCAACUUUCCGAGGGGACCGUCCCCUCGGUAAUGCCGAAUGGGACCCA [A45U G74C], the self-cleavage came to 0.0923.

GGCCGGCAUGGUCCCAGCCUCCUCGCUGGCGCCGGCUGGGCAACUAUCCGAGGGGACCGUCCCCUCGGUAAUGGCGAAUGGGACCCA [A45U U46A]: the self-cleavage was 0.639. In the case of GGCCGGCAUGGUCCCAGCCUCCUCGCUGGCGCCGGCUGGGCAACAAUCCGCGGGGACCGUCCCCUCGGUAAUGGCGAAUGGGACCCA [U46A A51C], the self-cleavage worked out at 0.831. For GGCCGGCAUGGUCCCAGCCUCCUCGCUGGCGCCGGCUGGGCAACAAUCCGGGGGGACCGUCCCCUCGGUAAUGGCGAAUGGGACCCA [U46A A51G] the value was 0.739; for GGCCGGCAUGGUCCCAGCCUCCUCGCUGGCGCCGGCUGGGCAACAAUCCGUGGGGACCGUCCCCUCGGUAAUGGCGAAUGGGACCCA [U46A A51U], 0.536. For GGCCGGCAUGGUCCCAGCCUCCUCGCUGGCGCCGGCUGGGCAACAAUCCGAGGGAACCGUCCCCUCGGUAAUGGCGAAUGGGACCCA [U46A G55A], the self-cleavage stood at 0.716. For GGCCGGCAUGGUCCCAGCCUCCUCGCUGGCGCCGGCUGGGCAACAAUCCGAGGGGACCGUGCCCUCGGUAAUGGCGAAUGGGACCCA [U46A C61G] the value was 0.808; for GGCCGGCAUGGUCCCAGCCUCCUCGCUGGCGCCGGCUGGGCAACAAUCCGAGUGGACCGUCCCCUCGGUAAUGGCGAAUGGGACCCA [U46A G53U], 0.712.
